Results: patent US8530621B2, “Combined preparation of a thiazide diuretic and a loop diuretic” (The Regents of the University of California, priority 2007, dated 2013)

Columns and labels:
[1] = tested on: αIIbα6β3β1 high-affinity chimeric integrin (αβPy cells); experiment: PAC1 binding by flow cytometry in αβPy cells transfected with talin F23 or DOK1; type: cell-based; details: talin-dependent constitutively active chimeric integrin, transient transfection
Text: (§1) A-B. CHO cells were transiently transfected with plasmids encoding αIIb and β3, or mutants thereof. In some samples (indicated above) a plasmid encoding a shRNA for talin-1 (Tadokoro et. al. 2003) or a control shRNA was co-transfected with the integrin plasmids. Cells were double stained for integrin αIIbβ3 expression (B-D57) and activated αIIbβ3 (PAC1) and flow cytometry was used to measure the geometric mean fluorescence intensity (F) of PAC1 binding. Non-specific PAC1 binding (F0) was measured in the presence of a competitive antagonist of αIIbβ3, Ro43-5054 and maximal binding (Fmax) was measured in the presence of the activating antibody Anti-LIBS6. Activation index was defined as 100*(F−F0)/(Fmax−F0) (see Experimental Procedures). A. Activation of αIIb(R995A)β3 integrin was diminished in the cells co-transfected with talin-1 knockdown shRNA. Similarly, the β3(Y747A) mutation blocks talin binding to the MD site and the αIIb(R995A)β3(Y747A) integrin is not activated. B. Talin-mediated activation requires specific contacts between talin F3 and the β3 MP region. Depicted is the Activation Index (gray bars) or the αIIbβ3 expression, indicated as fluorescence intensity of D57 staining (black bars). The activating effect of αIIb(R995A) is diminished when it is paired with the β3 MP mutants β3(F727A) or β3(F730A). C-D. CHO cells stably expressing WT human αIIbβ3 (A5 cells), or a high-affinity chimeric integrin (αβPy cells), were transiently co-transfected with vectors for WT or mutant HA-tagged talin F23 and eGFP protein as a transfection marker. PAC1 binding was measured by flow cytometry in the subset of cells expressing GFP. Insets show representative western blots of cell lysates probed with anti-HA antibody and indicate that WT and mutant HA-talin F23 expressed to similar levels. C. Specific PAC1 binding in αIIbβ3-expressing A5 cells transfected with talin F23 mutants relative to that in cells transfected with wild type talinF23 (set as 100). […] D. PAC1 binding in αIIbα6β3β1-expressing αβPy cells transfected with talin F23 or its mutants relative to that in cells transfected with empty vector (set as 100). The MP-contacting talin F23 mutants (L325R, S365D, S379R, Q381V) inhibited activation, whereas the MD-contacting mutant talin F23(W359A) had no significant effect on activation levels. All data are an average of three of more measurements, error bars are standard deviations.
A. CHO cells stably expressing a high-affinity chimeric integrin (αβPy cells) were transiently co-transfected with empty vector (pCDNA3.1), WT talin F23 or full-length DOK1; eGFP protein was used as a transfection marker. The level of integrin activation was measured by flow cytometry of harvested cells using PAC1 antibody as described in the legend to FIG. 3. Data are an average of three or more measurements; error bars are standard deviations. B. Overlay of the DOK and talin PTB domains. The critical differences between the two domains are the residues between strands S1 and S2. C. Weighted shift map (see Experimental Procedures) obtained by observing ^1H-^15N HSQC spectra on addition of the β3/PIPKIα peptide to the DOK PTB domain (10:1 molar ratio). Grey columns indicate residues whose peaks experienced severe line broadening in the bound state and could not be assigned.
To investigate this possibility we used αβPy cells, a CHO cell-line expressing a talin-dependent constitutively active chimeric integrin composed of the extracellular and transmembrane domains of αIIbβ3 and the cytoplasmic tails of α6β1 (Baker et al., 1997). We transiently transfected αβPy cells with cDNAs encoding the mutant F23 constructs (L325R, S365D, S379R, or Q381V).
For experiments to assess the functional effect of point mutants in the β3 tail, CHO cells were co-transfected with pCDM8 plasmids coding for wildtype or mutant sequences of βIIb and β3. […]

integrin αIIbβ3 = biological target: T1, integrin αIIbβ3 (Homo sapiens, UniProt P05106+P08514); experiment: PAC1 binding by flow cytometry in A5 cells transfected with talin F23; type: cell-based; details: CHO cells stably expressing WT human αIIbβ3 (A5 cells), transient transfection with HA-talin F23
T1 construct: expressed in transfected cells; host or cells: CHO (A5 cells)
Text: as §1
Contacts between talin and the MP region of the β3 cytoplasmic tail may constitute an interaction that is a key to the activation process. To test this concept, the effects of a number of designed mutations, both in the β3 tail and in the talin F3 sub-domain, were investigated. Integrin activation was assessed using the antibody PAC1 and flow cytometry as previously described (Partridge et al., 2005).
For experiments to assess the functional effect of point mutants in the β3 tail, CHO cells were co-transfected with pCDM8 plasmids coding for wildtype or mutant sequences of […] and β3. Transfection was done using the plus reagent and lipofectamine (Life Technologies); 24 hours later cells were stained with B-D57 and PAC1 in the presence and absence of Ro43-5054 or Anti-LIBS6. The biotinylated monoclonal antibody, B-D57 was used to detect expression of αIIbβ3, while PAC1, an activation specific, monoclonal IgM antibody was used to assess the activation state of the αIIbβ3 integrin. This antibody is an authentic ligand for integrin αIIbβ3 (Abrams et al., 1994) and its binding correlates with the binding of natural ligands, such as fibrinogen (Shattil et al., 1985). Cells were analyzed on a FACScan using both B-D57 and PAC1 antibodies as described previously (Partridge et al., 2005). The geometric mean fluorescence intensity (MFI) of PAC1 staining in the presence of Ro43-5054 (2 μM) was used to estimate non-specific PAC1 binding (F0). […]

| Molecule | integrin activation (PAC1 binding) [1] | integrin αIIbβ3 activation (PAC1 binding) (integrin αIIbβ3) |
| --- | --- | --- |
| DOK1: PTB-containing protein, full-length DOK1, transfected into αβPy cells (protein) MDGAVMEGPLFLQSQRFGTKRWRKTWAVLYPASPHGVARLEFFDHKGSSSGGGRGSSRRLDCKVIRLAECVSVAPVTVETPPEPGATAFRLDTAQRSHLLAADAPSSAAWVQTLCRNAFPKGSWTLAPTDNPPKLSALEMLENSLYSPTWEGSQFWVTVQRTEAAERCGLHGSYVLRVEAERLTLLTVGAQSQILEPLLSWPYTLLRRYGRDKVMFSFEAGRRCPSGPGTFTFQTAQGNDIFQAVETAIHRQKAQGKAGQGHDVLRADSHEGEVAEGKLPSPPGPQELLDSPPALYAEPLDSLRIAPCPSQDSLYSDPLDSTSAQAGEGVQRKKPLYWDLYEHAQQQLLKAKLTDPKEDPIYDEPEGLAPVPPQGLYDLPREPKDAWWCQARVKEEGYELPYNPATDDYAVPPPRSTKPLLAPKPQGPAFPEPGTATGSGIKSHNSALYSQVQKSGASGSWDCGLSRVGTDKTGVKSEGST | inhibited integrin activation | – |
| L325R: HA-tagged mouse talin F23 (residues 206-405) mutant L325R expressed by transfection (protein, UniProt P26039 206-405, looked up, variant L325R, F2-F3 subdomains HA tag, HA-tagged mouse talin F23 (residues 206-405) mutant L325R expressed by transfection) SRDPVQLNLLYVQARDDILNGSHPVSFDKACEFAGFQCQIQFGPHNEQKHKAGFLDLKDFLPKEYVKQKGERKIFQAHKNCGQMSEIEAKVRYVKLARSLKTYGVSFFLVKEKMKGKNKRVPRLLGITKECVMRVDEKTKEVIQEWSLTNIKRWAASPKSFTLDFGDYQDGYYSVQTTEGEQIAQLIAGYIDIILKKKKS | blocked integrin activation | diminished the ability of F23 to activate integrin αIIbβ3 |
| F23(W359A): talin F23 mutant W359A that strongly inhibits the MD binding site (protein, left off: small tags and cut ends) SRDPVQLNLLYVQARDDILNGSHPVSFDKACEFAGFQCQIQFGPHNEQKHKAGFLDLKDFLPKEYVKQKGERKIFQAHKNCGQMSEIEAKVRYVKLARSLKTYGVSFFLVKEKMKGKNKLVPRLLGITKECVMRVDEKTKEVIQEWSLTNIKRAAASPKSFTLDFGDYQDGYYSVQTTEGEQIAQLIAGYIDIILKKKKS | had no effect on activation | prevent activation |
| S379R: HA-tagged mouse talin F23 (residues 206-405) mutant S379R expressed by transfection (protein, UniProt P26039 206-405, looked up, variant S379R, F2-F3 subdomains HA tag, HA-tagged mouse talin F23 (residues 206-405) mutant S379R expressed by transfection) SRDPVQLNLLYVQARDDILNGSHPVSFDKACEFAGFQCQIQFGPHNEQKHKAGFLDLKDFLPKEYVKQKGERKIFQAHKNCGQMSEIEAKVRYVKLARSLKTYGVSFFLVKEKMKGKNKLVPRLLGITKECVMRVDEKTKEVIQEWSLTNIKRWAASPKSFTLDFGDYQDGYYRVQTTEGEQIAQLIAGYIDIILKKKKS | blocked integrin activation | diminished the ability of F23 to activate integrin αIIbβ3 |
| S365D: HA-tagged mouse talin F23 (residues 206-405) mutant S365D expressed by transfection (protein, UniProt P26039 206-405, looked up, variant S365D, F2-F3 subdomains HA tag, HA-tagged mouse talin F23 (residues 206-405) mutant S365D expressed by transfection) SRDPVQLNLLYVQARDDILNGSHPVSFDKACEFAGFQCQIQFGPHNEQKHKAGFLDLKDFLPKEYVKQKGERKIFQAHKNCGQMSEIEAKVRYVKLARSLKTYGVSFFLVKEKMKGKNKLVPRLLGITKECVMRVDEKTKEVIQEWSLTNIKRWAASPKDFTLDFGDYQDGYYSVQTTEGEQIAQLIAGYIDIILKKKKS | blocked integrin activation | diminished the ability of F23 to activate integrin αIIbβ3 |
| wild type F23: F2 and F3 sub-domains (F23) of talin, residues 206-405, wild type (protein, UniProt P26039 206-405, looked up, fragment, F2-F3 subdomains, F2 and F3 sub-domains (F23) of talin, residues 206-405, wild type) SRDPVQLNLLYVQARDDILNGSHPVSFDKACEFAGFQCQIQFGPHNEQKHKAGFLDLKDFLPKEYVKQKGERKIFQAHKNCGQMSEIEAKVRYVKLARSLKTYGVSFFLVKEKMKGKNKLVPRLLGITKECVMRVDEKTKEVIQEWSLTNIKRWAASPKSFTLDFGDYQDGYYSVQTTEGEQIAQLIAGYIDIILKKKKS | modestly increased activation | activated the integrin |
| Q381V: HA-tagged mouse talin F23 (residues 206-405) mutant Q381V expressed by transfection (protein, UniProt P26039 206-405, looked up, variant Q381V, F2-F3 subdomains HA tag, HA-tagged mouse talin F23 (residues 206-405) mutant Q381V expressed by transfection) SRDPVQLNLLYVQARDDILNGSHPVSFDKACEFAGFQCQIQFGPHNEQKHKAGFLDLKDFLPKEYVKQKGERKIFQAHKNCGQMSEIEAKVRYVKLARSLKTYGVSFFLVKEKMKGKNKLVPRLLGITKECVMRVDEKTKEVIQEWSLTNIKRWAASPKSFTLDFGDYQDGYYSVVTTEGEQIAQLIAGYIDIILKKKKS | blocked integrin activation | diminished the ability of F23 to activate integrin αIIbβ3 |
